# Measurements published in PMC12955825 (Med (New York, N.Y.), 2025).
# Bridge positions count the residues as written; N and C are the ends. Ends that are not written are not given here.
# Columns and labels:
# Test in all cases: phage-binding assay
# calumenin = biological target: T1, calumenin (human, UniProt O43852 20-315)
# T1 sequence (looked up): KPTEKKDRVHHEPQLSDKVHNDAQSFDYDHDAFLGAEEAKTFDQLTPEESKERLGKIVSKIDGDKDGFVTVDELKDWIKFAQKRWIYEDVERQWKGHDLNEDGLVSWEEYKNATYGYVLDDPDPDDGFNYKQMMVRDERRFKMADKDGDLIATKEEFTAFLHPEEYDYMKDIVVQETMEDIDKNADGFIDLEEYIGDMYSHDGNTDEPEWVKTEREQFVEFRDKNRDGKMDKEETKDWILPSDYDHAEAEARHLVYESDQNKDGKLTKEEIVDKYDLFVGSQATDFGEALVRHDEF
# [1] = biological target: T2, CASQ1, human recombinant protein (human, UniProt P31415 35-396)
# T2 sequence (looked up): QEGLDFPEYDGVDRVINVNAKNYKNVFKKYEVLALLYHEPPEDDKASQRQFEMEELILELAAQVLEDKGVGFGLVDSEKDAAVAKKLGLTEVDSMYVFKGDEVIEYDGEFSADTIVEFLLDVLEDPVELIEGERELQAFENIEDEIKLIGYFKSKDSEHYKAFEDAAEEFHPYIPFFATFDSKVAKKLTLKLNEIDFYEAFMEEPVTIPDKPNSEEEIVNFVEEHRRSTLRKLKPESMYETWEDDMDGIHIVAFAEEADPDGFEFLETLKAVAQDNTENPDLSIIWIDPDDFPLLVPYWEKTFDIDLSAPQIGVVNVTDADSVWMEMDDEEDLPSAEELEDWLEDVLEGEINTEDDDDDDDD
# [2] = biological target: BAG family molecular chaperone regulator 3 (human, UniProt O95817 1-575)
# [3] = biological target: T3, CRYAB, human recombinant protein (human, UniProt P02511 1-175)
# T3 sequence (looked up): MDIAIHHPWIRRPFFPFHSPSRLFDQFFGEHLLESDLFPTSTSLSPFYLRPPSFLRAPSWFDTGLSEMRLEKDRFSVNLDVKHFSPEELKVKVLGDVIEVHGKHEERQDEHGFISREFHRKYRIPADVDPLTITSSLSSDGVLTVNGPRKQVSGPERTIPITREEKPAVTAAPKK
# [4] = biological target: T4, fructose-bisphosphate aldolase A (human, UniProt P04075 1-364)
# T4 sequence (looked up): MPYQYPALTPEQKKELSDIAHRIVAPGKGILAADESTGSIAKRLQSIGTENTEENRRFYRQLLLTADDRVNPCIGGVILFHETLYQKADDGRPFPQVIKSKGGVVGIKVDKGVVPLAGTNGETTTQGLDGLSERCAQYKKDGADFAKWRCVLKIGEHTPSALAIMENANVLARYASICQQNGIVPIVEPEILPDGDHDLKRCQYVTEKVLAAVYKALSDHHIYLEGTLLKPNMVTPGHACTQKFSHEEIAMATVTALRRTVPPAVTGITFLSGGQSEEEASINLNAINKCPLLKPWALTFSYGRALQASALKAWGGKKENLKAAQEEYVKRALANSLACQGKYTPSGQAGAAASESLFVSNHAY
# [5] = biological target: HSP27, human recombinant protein (human, UniProt P04792 1-205)
# desmin = desmin (human, UniProt P17661 1-470)
# [6] = biological target: heat shock cognate 71 kDa protein (human, UniProt P11142 1-646)
# [7] = biological target: 78 kDa glucose-regulated protein (human, UniProt P11021 19-654)
# lactotransferrin = lactotransferrin (human, UniProt P02788 20-710)
# annexin A1 = biological target: T5, annexin A1 (human, UniProt P04083 1-346)
# T5 sequence (looked up): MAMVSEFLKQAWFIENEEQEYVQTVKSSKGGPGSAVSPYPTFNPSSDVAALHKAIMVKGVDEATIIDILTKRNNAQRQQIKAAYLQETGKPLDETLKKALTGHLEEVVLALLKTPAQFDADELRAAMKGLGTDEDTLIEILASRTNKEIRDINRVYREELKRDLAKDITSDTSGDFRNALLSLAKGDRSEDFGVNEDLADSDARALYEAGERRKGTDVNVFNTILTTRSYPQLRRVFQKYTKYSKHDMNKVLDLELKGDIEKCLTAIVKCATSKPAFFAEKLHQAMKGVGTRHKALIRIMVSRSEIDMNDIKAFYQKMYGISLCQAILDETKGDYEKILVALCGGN
# [8] = biological target: T6, thioredoxin-dependent peroxide reductase (mitochondrial) (human, UniProt P30048 62-256)
# T6 sequence (looked up): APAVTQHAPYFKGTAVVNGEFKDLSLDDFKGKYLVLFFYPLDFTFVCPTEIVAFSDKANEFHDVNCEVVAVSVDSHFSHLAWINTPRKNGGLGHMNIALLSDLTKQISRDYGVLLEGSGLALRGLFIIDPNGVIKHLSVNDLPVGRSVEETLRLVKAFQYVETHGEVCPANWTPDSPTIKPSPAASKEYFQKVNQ
# [9] = biological target: peptidyl-prolyl cis-trans isomerase B (human, UniProt P23284 34-216)
# [10] = biological target: T7, complement component 1 Q subcomponent-binding protein (mitochondrial) (human, UniProt Q07021 74-282)
# T7 sequence (looked up): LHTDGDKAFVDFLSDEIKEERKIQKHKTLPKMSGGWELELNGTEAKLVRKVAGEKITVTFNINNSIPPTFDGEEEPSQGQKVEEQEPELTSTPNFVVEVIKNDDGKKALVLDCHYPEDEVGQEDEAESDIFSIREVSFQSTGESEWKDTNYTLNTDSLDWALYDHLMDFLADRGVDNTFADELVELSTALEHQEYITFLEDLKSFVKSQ
# Chain of HSP27, human recombinant protein (P04792 whole entry): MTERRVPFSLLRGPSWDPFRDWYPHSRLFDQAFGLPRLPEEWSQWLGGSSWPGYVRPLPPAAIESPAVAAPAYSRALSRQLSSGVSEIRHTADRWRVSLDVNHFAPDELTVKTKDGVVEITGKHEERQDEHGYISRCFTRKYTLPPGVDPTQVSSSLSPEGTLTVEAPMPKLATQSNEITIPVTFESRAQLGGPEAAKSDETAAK
# Chain of BAG family molecular chaperone regulator 3 (O95817 whole entry): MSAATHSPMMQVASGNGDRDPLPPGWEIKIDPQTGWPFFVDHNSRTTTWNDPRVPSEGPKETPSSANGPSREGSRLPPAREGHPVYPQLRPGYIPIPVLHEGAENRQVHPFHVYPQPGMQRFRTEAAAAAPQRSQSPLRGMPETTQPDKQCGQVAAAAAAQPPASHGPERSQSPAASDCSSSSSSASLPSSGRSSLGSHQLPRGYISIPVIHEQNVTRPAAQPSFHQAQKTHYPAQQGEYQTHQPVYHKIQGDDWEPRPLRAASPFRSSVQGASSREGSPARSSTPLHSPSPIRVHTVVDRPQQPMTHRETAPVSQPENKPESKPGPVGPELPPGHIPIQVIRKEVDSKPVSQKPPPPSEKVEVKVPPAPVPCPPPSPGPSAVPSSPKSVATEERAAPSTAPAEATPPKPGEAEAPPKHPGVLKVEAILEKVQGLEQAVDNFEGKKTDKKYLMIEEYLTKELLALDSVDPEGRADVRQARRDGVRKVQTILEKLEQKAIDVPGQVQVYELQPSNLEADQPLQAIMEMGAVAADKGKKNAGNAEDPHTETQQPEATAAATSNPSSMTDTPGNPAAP
# Chain of desmin (P17661 whole entry): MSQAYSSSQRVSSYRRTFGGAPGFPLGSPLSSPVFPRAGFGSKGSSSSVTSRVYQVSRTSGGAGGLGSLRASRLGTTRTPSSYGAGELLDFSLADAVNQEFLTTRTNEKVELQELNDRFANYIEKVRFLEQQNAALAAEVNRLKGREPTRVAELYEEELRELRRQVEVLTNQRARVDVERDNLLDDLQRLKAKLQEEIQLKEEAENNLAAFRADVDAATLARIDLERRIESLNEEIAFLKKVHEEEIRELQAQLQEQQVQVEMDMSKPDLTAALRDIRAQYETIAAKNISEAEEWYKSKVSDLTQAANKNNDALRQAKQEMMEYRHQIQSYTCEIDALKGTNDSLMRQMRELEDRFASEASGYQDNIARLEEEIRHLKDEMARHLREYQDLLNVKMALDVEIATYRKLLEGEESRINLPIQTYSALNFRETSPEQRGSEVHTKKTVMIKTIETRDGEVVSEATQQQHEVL
# Chain of 78 kDa glucose-regulated protein (P11021 19-654): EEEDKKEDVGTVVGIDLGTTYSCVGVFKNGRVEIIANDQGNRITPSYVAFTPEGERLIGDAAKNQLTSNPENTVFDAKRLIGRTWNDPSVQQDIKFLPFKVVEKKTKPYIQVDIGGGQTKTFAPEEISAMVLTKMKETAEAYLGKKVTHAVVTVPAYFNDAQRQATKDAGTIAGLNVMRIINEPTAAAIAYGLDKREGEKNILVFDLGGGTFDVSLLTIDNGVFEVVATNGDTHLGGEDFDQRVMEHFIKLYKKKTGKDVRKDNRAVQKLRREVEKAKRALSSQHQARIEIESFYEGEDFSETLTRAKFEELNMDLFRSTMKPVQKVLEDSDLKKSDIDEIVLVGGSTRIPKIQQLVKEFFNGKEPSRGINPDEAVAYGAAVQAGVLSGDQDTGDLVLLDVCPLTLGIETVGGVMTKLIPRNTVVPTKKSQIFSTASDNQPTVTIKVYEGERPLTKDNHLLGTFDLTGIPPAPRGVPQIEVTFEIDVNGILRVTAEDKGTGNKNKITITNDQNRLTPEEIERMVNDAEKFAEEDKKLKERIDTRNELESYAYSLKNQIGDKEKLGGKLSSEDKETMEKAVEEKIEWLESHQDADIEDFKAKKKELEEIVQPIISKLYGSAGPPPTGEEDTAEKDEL
# Chain of lactotransferrin (P02788 20-710): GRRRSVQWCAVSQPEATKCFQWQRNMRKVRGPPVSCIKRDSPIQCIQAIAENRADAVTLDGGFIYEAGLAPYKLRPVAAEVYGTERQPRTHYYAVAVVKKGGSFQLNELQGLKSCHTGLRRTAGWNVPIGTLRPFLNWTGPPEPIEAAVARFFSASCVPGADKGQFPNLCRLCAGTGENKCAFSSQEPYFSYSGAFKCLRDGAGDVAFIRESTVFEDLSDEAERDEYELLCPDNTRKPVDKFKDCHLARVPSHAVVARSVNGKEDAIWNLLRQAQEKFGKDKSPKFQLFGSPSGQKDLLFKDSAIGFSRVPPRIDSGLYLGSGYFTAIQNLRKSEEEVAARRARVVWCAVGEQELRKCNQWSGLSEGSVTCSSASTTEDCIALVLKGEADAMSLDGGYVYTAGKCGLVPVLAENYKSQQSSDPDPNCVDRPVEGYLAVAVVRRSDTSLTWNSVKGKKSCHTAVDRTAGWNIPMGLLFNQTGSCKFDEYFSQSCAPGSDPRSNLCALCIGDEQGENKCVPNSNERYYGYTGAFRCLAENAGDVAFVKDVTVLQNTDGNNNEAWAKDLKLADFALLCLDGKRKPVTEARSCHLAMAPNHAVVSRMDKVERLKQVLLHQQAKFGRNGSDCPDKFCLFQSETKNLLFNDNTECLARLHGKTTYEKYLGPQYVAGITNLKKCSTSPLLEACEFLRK
# Chain of peptidyl-prolyl cis-trans isomerase B (P23284 34-216): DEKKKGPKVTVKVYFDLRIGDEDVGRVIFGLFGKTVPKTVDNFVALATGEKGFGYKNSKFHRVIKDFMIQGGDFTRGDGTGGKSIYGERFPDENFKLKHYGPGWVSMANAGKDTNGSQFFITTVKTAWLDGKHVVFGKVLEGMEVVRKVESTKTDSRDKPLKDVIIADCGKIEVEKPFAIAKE
# Chain of heat shock cognate 71 kDa protein (P11142 whole entry): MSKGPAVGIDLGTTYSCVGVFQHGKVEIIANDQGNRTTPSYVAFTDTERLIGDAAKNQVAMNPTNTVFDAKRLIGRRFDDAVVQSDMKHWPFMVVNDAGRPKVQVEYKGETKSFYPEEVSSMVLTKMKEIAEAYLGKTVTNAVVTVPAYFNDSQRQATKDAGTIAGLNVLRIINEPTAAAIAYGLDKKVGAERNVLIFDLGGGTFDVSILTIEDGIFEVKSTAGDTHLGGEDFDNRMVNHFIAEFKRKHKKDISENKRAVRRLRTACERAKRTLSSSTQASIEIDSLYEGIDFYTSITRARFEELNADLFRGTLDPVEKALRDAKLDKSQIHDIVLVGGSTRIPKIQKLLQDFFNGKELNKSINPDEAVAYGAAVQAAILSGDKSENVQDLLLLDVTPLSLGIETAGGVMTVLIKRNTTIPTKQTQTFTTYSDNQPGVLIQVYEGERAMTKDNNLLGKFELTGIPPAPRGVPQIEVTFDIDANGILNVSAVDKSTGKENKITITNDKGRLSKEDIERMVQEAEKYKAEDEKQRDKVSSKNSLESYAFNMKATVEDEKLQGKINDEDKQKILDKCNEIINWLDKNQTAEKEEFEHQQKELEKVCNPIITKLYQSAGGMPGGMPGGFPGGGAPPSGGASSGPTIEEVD
binder,measurement,setting,value
CPTFFAVPC (disulfide 1-9) [CPTFFAVPC-displaying phage],binding result,calumenin,binds
CLRGFPALVC (disulfide 1-10) [CLRGFPALVC-displaying phage],binding result,[1],binds
CEGKEDMQGC (disulfide 1-10) [CEGKEDMQGC-displaying phage],binding result,[2],binds
CLRGFQRVC (disulfide 1-9) [CLRGFQRVC-displaying phage],binding result,[1],binds
CRPARVRGAC (disulfide 1-10) [CRPARVRGAC-displaying phage],binding result,[3],binds
CKWEGLDMAC (disulfide 1-10; also: displayed on phage) [CKWEGLDMAC-displaying phage],binding result,[4],binds
CLVSGRSRC (disulfide 1-9) [CLVSGRSRC-displaying phage],binding result,[5],binds
CSRAKGRGAC (disulfide 1-10) [CSRAKGRGAC-displaying phage],binding result,desmin,binds
CLNVSGRSC (disulfide 1-9) [CLNVSGRSC-displaying phage],binding result,[6],binds
CVLRFFSSC (disulfide 1-9) [CVLRFFSSC-displaying phage],binding result,[7],binds
CGILGPWMAC (disulfide 1-10) [CGILGPWMAC-displaying phage],binding result,lactotransferrin,binds
CHKPPNFGSC (disulfide 1-10) [CHKPPNFGSC-displaying phage],binding result,annexin A1,binds
CTESFQKHLC (disulfide 1-10) [CTESFQKHLC-displaying phage],binding result,[8],binds
CRGFVRGSC (disulfide 1-9) [CRGFVRGSC-displaying phage],binding result,[3],binds
CASAVPISC (disulfide 1-9) [CASAVPISC-displaying phage],binding result,[9],binds
CSRGSPDARC (disulfide 1-10) [CSRGSPDARC-displaying phage],binding result,[10],binds
